# Experimental data from patent US20240368289A1 (LAEKNA THERAPEUTICS SHANGHAI, published 2024).
# Residue numbers refer to the chain shown, from its start.
# B1: hit J (IgG) (antibody, V domains shown)
# VH: QVQLVQSGAEVKKPGSSVKVSCKASGPRFQDLSISWVRQAPGQGLEWMGGIIPIYGTANYAQKFQGRVTITADESTSTAYMELSSLRSEDTAVYYCVKDLTWTNLGLDIWGQGTMVTVSS
# VL: EIVMTQSPSSLSASVGDTVTITCRASQGVSRWLAWYQQKPGKAPRLLIYAASSLHSGVPSRFSGSGSGTHFTLTISSLQPEDFATYFCQQSYSTPFTFGPGTKLEIK
# notes: IgG: VH and VL cloned into pFUSEss-CHIg-hG1 (human IgG1 heavy) and pFUSE2ss-CLIg-hk (human kappa), made in 293F cells; also called parental clone "J"
# B2: IgG NGS-1 (CDR shuffling) (antibody, V domains shown)
# VH: B1 VH with P27F, R28Q, Q30R, D31T, L32S, S33L, I51L, Y55F
# VL: EIVMTQSPSSLSASVGDTVTITCRASQGVSRWLAWYQQKPGKAPRLLIYSAASSLYSGVPSRFSGSGSGTHFTLTISSLQPEDFATYFCQQSYSTPFTFGPGTKLEIK
# notes: IgG: human IgG1 / kappa from pFUSE vectors, made in 293F cells
# B3: IgG 3352 (CDR shuffling) (antibody, V domains shown)
# VH: B1 VH with P27F, R28Q, Q30R, D31T, L32S, S33L, I51L, Y55F
# VL: B1 VL with V29P, S52Q, S53G, H55S
# notes: as for B2
# B4: hit 21169 (IgG) (antibody, V domains shown)
# VH: B1 VH with P27F, R28Q, Q30R, D31T, L32S, S33L, I51L, Y55F
# VL: B1 VL with S52Q, S53G, H55S
# notes: as for B2
# B5: hit 21341 (LA01) (IgG) (antibody, V domains shown)
# VH: B1 VH
# VL: B1 VL with A50S, S52R, S53A
# notes: IgG: human IgG1 / kappa from pFUSE vectors, made in 293F cells; also called ACVR2A Ab LA01
# B6: hit 275 (IgG) (antibody, V domains shown)
# VH: B1 VH with P27F, R28Q, Q30R, D31T, L32S, S33L, I51L, Y55F
# VL: B1 VL with V29P
# notes: as for B2
# B7: hit 21366 (IgG) (antibody, V domains shown)
# VH: B1 VH
# VL: B1 VL with A50W, S52A, S53H, H55Q
# notes: as for B2
# B8: hit 21155 (IgG) (antibody, V domains shown)
# VH: B1 VH with P27F, R28Q, Q30R, D31T, L32S, S33L, I51L, Y55F
# VL: B1 VL with A50G, S53P, H55S
# notes: as for B2
# B9: hit 21343 (IgG) (antibody, V domains shown)
# VH: B1 VH
# VL: B1 VL with A50N, S52R, H55F
# notes: as for B2
# B10: IgG 6401 (CDR shuffling) (antibody, V domains shown)
# VH: B1 VH
# VL: B1 VL with V29P, A50S, S52R, S53A
# notes: as for B2
# B11: clone D (Fab) (Fab, V domains shown)
# VH: QVQLVQSGAEVKKPGSSVKVSCKASGQFYHSRISWVRQAPGQGLEWMGGLIPIFGTANYAQKFQGRVTITADESTSTAYMELSSLRSEDTAVYYCVKDLTWTNLGLDIWGQGTMVTVSS
# VL: B1 VL with G28S, V29I, S30G, Q90E, T94N, F96Y
# notes: Fab made in E. coli TG1 and purified on Ni-NTA
# B12: clone F (Fab) (Fab, V domains shown)
# VH: B1 VH with P27R, R28E, Q30E, D31S, S33F, I51L, Y55F
# VL: B1 VL with G28S, V29I, S30G, Q90E, T94N, F96Y
# notes: as for B11
# B13: clone E (Fab) (Fab, V domains shown)
# VH: B1 VH with P27F, R28Q, Q30R, D31T, L32S, S33L, I51L, Y55F
# VL: B1 VL with G28S, V29I, S30G, Q90E, T94N, F96Y
# notes: as for B11
# B14: clone K (Fab) (Fab, V domains shown)
# VH: B1 VH with P27M, R28P, D31Q, L32S, S33Q
# VL: B1 VL
# notes: as for B11
# B15: clone H (Fab) (Fab, V domains shown)
# VH: B1 VH with P27L, R28G, Q30H, D31N, L32F, S33Q
# VL: B1 VL
# notes: as for B11
# B16: clone G (Fab) (Fab, V domains shown)
# VH: B1 VH with P27R, R28H, Q30G, D31S, S33Q
# VL: B1 VL
# notes: as for B11
# B17: clone C (Fab) (Fab, V domains shown)
# VH: B1 VH with P27R, R28E, Q30E, D31S, S33F
# VL: B1 VL
# notes: as for B11
# B18: clone B (Fab) (Fab, V domains shown)
# VH: B1 VH with P27F, R28Q, Q30R, D31T, L32S, S33L
# VL: B1 VL
# notes: as for B11
# B19: clone I (Fab) (Fab, V domains shown)
# VH: B1 VH with P27E, R28S, Q30E, D31H, L32F, S33Q
# VL: B1 VL
# notes: as for B11
# B20: 366 (antibody, V domains shown)
# VH: B1 VH with P27F, R28Q, Q30R, D31T, L32S, S33L, I51L, Y55F
# VL: B1 VL with V29A, R31Q, A34K
# Target: ACVR2A on HEK293T-B1 cells (ACVR2B knockout stable cell line) (UniProt P27037 20-513)
# Sequence (P27037 20-513): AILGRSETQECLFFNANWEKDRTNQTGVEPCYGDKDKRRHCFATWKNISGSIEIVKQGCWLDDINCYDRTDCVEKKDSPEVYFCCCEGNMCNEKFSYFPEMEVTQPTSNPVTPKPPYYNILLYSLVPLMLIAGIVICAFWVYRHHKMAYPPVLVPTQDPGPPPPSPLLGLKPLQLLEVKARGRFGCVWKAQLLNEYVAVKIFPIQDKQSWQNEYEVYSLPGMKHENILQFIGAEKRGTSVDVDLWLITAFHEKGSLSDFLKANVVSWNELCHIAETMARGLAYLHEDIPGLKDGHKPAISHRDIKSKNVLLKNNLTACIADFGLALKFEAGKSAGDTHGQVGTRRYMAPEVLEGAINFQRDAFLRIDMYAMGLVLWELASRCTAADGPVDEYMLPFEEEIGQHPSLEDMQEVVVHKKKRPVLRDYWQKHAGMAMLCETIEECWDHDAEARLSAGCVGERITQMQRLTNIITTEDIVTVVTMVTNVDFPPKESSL
# Assay: cell-based or functional assay
"IC50 (M), HEK293T-B1 CAGA-Luc, Activin A","IC50 (M), HEK293T-B1 CAGA-Luc, GDF8",Binder
5.12e-09 M,2.06e-09 M,B1
3.28e-09 M,2.42e-10 M,B2
2.28e-09 M,3.51e-10 M,B3
2.66e-09 M,4.99e-10 M,B4
6.24e-09 M,1.6e-09 M,B5
4.91e-09 M,8.81e-10 M,B6
3.64e-09 M,1.65e-09 M,B7
1.78e-09 M,6.51e-10 M,B8
9.07e-09 M,1.64e-09 M,B9
1.93e-09 M,2.16e-09 M,B10

# Target: T1, recombinant protein comprising the human ACVR2A extracellular domain (ECD) fused to the human IgG1 Fc region (human, UniProt P27037 20-135)
# T1 construct: extracellular domain; also called ACVR2A-Fc; ACVR2A-FC; not shown: human IgG1 Fc region
# T1 sequence (P27037 20-135): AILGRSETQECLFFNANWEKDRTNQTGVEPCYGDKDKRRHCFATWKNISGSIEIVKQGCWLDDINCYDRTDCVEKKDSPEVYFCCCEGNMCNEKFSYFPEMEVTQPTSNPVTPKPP
# Assay: SPR, Biacore; format and antigen construct not given
Kd,koff,kon,Binder
0.638 nM,0.000118 s⁻¹,185000 M⁻¹ s⁻¹,B2
0.584 nM,9.41e-05 s⁻¹,161000 M⁻¹ s⁻¹,B3
0.663 nM,0.000238 s⁻¹,359000 M⁻¹ s⁻¹,B4
0.172 nM,5.44e-05 s⁻¹,316000 M⁻¹ s⁻¹,B5
0.872 nM,0.000319 s⁻¹,366000 M⁻¹ s⁻¹,B6
0.153 nM,7.91e-06 s⁻¹,51600 M⁻¹ s⁻¹,B7
0.211 nM,8.07e-05 s⁻¹,382000 M⁻¹ s⁻¹,B8
0.43 nM,4.51e-05 s⁻¹,105000 M⁻¹ s⁻¹,B9
0.865 nM,0.000135 s⁻¹,156000 M⁻¹ s⁻¹,B10

# Target: T1, recombinant protein comprising the …
# Assay: SPR, Biacore 3000 (1st test); ACVR2A-Fc captured by anti-human Fc, Fab injected
# Description: (§1) 2.2 Surface Plasmon resonance (SPR) measurements and affinity analysis by anti-human Fc capture format. After affinity panning, output-3 (03) of CDRH1 library were screened for binding ability by Fab ELISA and followed by NGS DNA sequencing. Based on binding Elisa and sequence abundance from NGS data, 11 clones were select for SPR analysis. Approximately 100-800 resonance units (RU) of antigen ACVR2A, was captured by anti-human Fc immobilized on a channel of a CM5 chip with an activated amine group. After immobilization, Fab antibodies were injected into the channels at 25° C. in HBS-EP buffer, with a flow rate of 30 μL/min, 1 min. When the data collection was finished in each cycle, the sensor surface was regenerated using 80 mM NaOH with a flow rate of 30 μL/min, 15 sec and reused chip in next cycle. After subtraction of reference surface and buffer injection, curve was locally fitted with BIA evaluation version 4.1 using a 1:1 Langmuir binding mode.
# (§2) The affinity of selected 11 anti-ACVR2A monoclonal antibody clones were determined on Biacore®3000 and Biacore®8000 as shown in Table 4 below.
Kd,koff,kon,Binder
12.8 nM,0.00232 s⁻¹,181000 M⁻¹ s⁻¹,B11
11.8 nM,0.000288 s⁻¹,24400 M⁻¹ s⁻¹,B12
0.664 nM,0.00019 s⁻¹,285000 M⁻¹ s⁻¹,B13
0.489 nM,0.000256 s⁻¹,523000 M⁻¹ s⁻¹,B14
2.25 nM,0.000698 s⁻¹,311000 M⁻¹ s⁻¹,B15
0.612 nM,0.000152 s⁻¹,248000 M⁻¹ s⁻¹,B16
1.14 nM,4.16e-05 s⁻¹,36500 M⁻¹ s⁻¹,B17
6.81 nM,0.0022 s⁻¹,323000 M⁻¹ s⁻¹,B18
1.84 nM,0.000468 s⁻¹,254000 M⁻¹ s⁻¹,B19

# Target: T1, recombinant protein comprising the …
# Assay: SPR, Biacore 8000 (2nd test); ACVR2A-Fc captured by anti-human Fc, Fab injected
# Description: as §1, §2
Kd,koff,kon,Binder
10.4 nM,0.00285 s⁻¹,273000 M⁻¹ s⁻¹,B11
1.47 nM,0.000331 s⁻¹,225000 M⁻¹ s⁻¹,B12
0.501 nM,0.000153 s⁻¹,307000 M⁻¹ s⁻¹,B13
0.212 nM,0.000259 s⁻¹,1.22e+06 M⁻¹ s⁻¹,B14
1.38 nM,0.000901 s⁻¹,651000 M⁻¹ s⁻¹,B15
0.443 nM,0.000282 s⁻¹,637000 M⁻¹ s⁻¹,B16
3.08 nM,0.000247 s⁻¹,90300 M⁻¹ s⁻¹,B17
5.91 nM,0.00253 s⁻¹,428000 M⁻¹ s⁻¹,B18
1.01 nM,0.000379 s⁻¹,374000 M⁻¹ s⁻¹,B19

# Target: T2, ACVR2A mouse Fc fusion protein (mouse, UniProt P27037 20-135 (human entry), limits assumed)
# T2 construct: not shown: mouse Fc
# T2 sequence (P27037 20-135 limits assumed): as the sequence (P27037 20-135) above
# Assay: Activin A competitive ELISA; ACVR2A mouse Fc coated, antibody titrated, competitor activin A
# Description: (§3) 2.3 Activin A Competitive ELISA. To select ACVR2A hits that could block the interaction between ACVR2A and its ligand Activin A, a competitive ELISA assay was set up. 30 μL 4.17 nM ACVR2A mouse Fc fusion protein was coated in 384-well HB plate at 4° C. overnight following blocking with 5% BSA. Anti-ACVR2A Fab fragment or antibodies with different concentrations were added to the plate and incubated on an orbital shaker at room temperature for 1 hours to allow binding of the antibodies. […] After 5 times washing with TBST, 30 μl of 20 nM goat anti-activin A polyclonal antibody (Abcam, ab7153) in blocking buffer was added into plate and incubated at room temperature for 1 hour. Last, 30 μl of anti-goat IgG-HRP (Beyotime, A0181) in blocking buffer (1:500 dilution) was added to plate for another 30 min incubation following washing step. Luminescence signal was collected on Tecan infinite M1000 after adding 30 μl ECL substrate.
row,IC50,Binder
1,5.04 nM,B1
2,1.86 nM,B2
3,2.07 nM,B3
4,5.3 nM,B4
5,4.83 nM,B5
6,6.04 nM,B6
7,4.15 nM,B7
8,5.13 nM,B8
9,4.74 nM,B9
10,1.95 nM,B10

# Target: T2, ACVR2A mouse Fc fusion protein
# Assay: Activin A competitive ELISA: ACVR2A mouse Fc fusion coated, IgG titrated, then 16.7 nM Activin A added; bound Activin A detected (luminescence)
# Description: as §3
row,IC50 (read off the curve),Binder
1,~9 nM,B20
